What was measured:
ParC WT;ParE = ParC WT;ParE (Escherichia coli;Escherichia coli, UniProt P0AFI2;P20083 1-752;1-630, |); experiment: fluorescence anisotropy
ParC R564D;ParE = ParC R564D;ParE (Escherichia coli;Escherichia coli, UniProt P0AFI2;P20083 1-752;1-630, R564D|); experiment: fluorescence anisotropy

B1: 45mer duplex with strong topo II site, FAM (dsDNA)
DNA 1: GCCTATCCGAGGATGACGATGCGCGCATCGTCATACAGCGAATGG
DNA 2: CCATTCGCTGTATGACGATGCGCGCATCGTCATCCTCGGATAGGC
B1 was tested, and the Kd (ParC WT;ParE) was 25 5 and the Kd (ParC R564D;ParE) was 15 3.
